Test results published in patent US20220340924.

Target: T1, MYB46-GFP fusion
T1 chain: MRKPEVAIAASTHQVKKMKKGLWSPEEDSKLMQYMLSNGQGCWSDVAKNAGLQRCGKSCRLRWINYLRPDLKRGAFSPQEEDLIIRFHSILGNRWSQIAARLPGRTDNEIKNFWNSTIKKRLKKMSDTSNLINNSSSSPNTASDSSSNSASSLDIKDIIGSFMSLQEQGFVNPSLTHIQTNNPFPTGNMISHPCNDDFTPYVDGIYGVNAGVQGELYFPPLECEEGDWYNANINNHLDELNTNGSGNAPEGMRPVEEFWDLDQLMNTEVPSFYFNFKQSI

B1: CAMPK6-HA (hemagglutinin conjugated CAMPK6) (protein)
chain: MDGGSGQPAADTEMTEAPGGFPAAAPSPQMPGIENIPATLSHGGRFIQYNIFGNIFEVTAKYKPPIMPIGKGAYGIVCSAMNSETNESVAIKKIANAFDNKIDAKRTLREIKLLRHMDHENIVAIRDIIPPPLRNAFNDVYIAYELMDTDLHQIIRSNQALSEEHCQYFLYQILRGLKYIHSANVLHRDLKPSNLLLNANCDLKICDFGLARVTSESGFMTAYVVTRWYRAPELLLNSSDYTAAIDVWSVGCIFMELMDRKPLFPGRDHVHQLRLLMELIGTPSEEELEFLNENAKRYIRQLPPYPRQSITDKFPTVHPLAIDLIEKMLTFDPRRRITVLDALAHPYLNSLHDISDEPECTIPFNFDFENHALSEEQMKELIYREALAFNPEYQQ
- immunocomplex kinase assay (phosphorylation of MYB46): CAMPK6 directly phosphorylates MYB46
